Test results: patent publication US20160207973A1 (Pfizer, published 2016)
Positions count from the first letter of the chain named. Names and notes keep the numbering of the source. Read-outs that look alike come from different tables or passages of the source.

T1: wild type BMP6 homodimer (Homo sapiens (Human), UniProt P22004 375-513, N-linked glycan at N80 (CHO-produced))
T1 construct: Produced in CHO cells; also called WT BMP6; BMP6/6
T1 sequence: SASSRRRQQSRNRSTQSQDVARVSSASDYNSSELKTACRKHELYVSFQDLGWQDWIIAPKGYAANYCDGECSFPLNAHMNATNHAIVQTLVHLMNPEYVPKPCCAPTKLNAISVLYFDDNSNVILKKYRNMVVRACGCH

T2: designer BMPE (N-linked glycan at N56 (CHO-produced))
T2 chain: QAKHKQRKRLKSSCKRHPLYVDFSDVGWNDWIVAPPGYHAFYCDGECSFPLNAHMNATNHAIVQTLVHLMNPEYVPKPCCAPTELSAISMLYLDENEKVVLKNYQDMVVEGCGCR

T3: ALK2 receptor-human-IgG1-Fc fusion protein (human), Q04771
T3 chain: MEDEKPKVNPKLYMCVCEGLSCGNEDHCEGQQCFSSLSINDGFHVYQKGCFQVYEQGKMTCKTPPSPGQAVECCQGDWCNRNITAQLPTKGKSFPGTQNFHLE

B1: designer BMP-GER (ligand)
chain: T2 chain with V33I, P36R, H39A, S86N, M90V, L93F, E95D, E97S, K98N, V100I
notes: also called BMPGE P36R
B2: designer BMP-E-NR (ligand)
chain: QAKHKQRKRLKSSCKRHPLYVDFSDVGWNDWIVAPPGYHAFYCDGECSFPLNAHMNATNHAIVQTLVHLMNPEYVPKPCCAPTKLRPMSMLYYDDGQNIIKKDIQNMIVEECGCS
B3: designer BMP-GER-NR (ligand)
chain: B2 chain with V33I, P36R, H39A
B4: ALK3 receptor-human-IgG1-Fc fusion protein (Fc fusion, UniProt P36894 24-152, looked up)
chain: QNLDSMLHGTGMKSDSDQKKSENGVTLAPEDTLPFLKCYCSGHCPDDAINNTCITNGHCFAIIEEDDQGETTLASGCMKYEGSDFQCKDSPKAQLRRTIECCRTNLCNQYLQPTLPPVVIGPFFDGSIR
notes: extracellular domain; See note of m11; also called BMPRIa; not shown: human IgG1 Fc
B5: ALK2 receptor-human-IgG1-Fc fusion protein (Fc fusion, UniProt Q04771 21-123, looked up)
chain: T3 chain
notes: extracellular domain; also called ActRIa; ActRI; not shown: human IgG1 Fc
B6: Noggin (other, UniProt Q13253 28-232, looked up)
chain: QHYLHIRPAPSDNLPLVDLIEHPDPIFDPKEKDLNETLLRSLLGGHYDPGFMATSPPEDRPGGGGGAAGGAEDLAELDQLLRQRPSGAMPSEIKGLEFSEGLAQGKKQRLSKKLRRKLQMWLWSQTFCPVLYAWNDLGSRFWPRYVKVGSCFSKRSCSVPEGMVCKPSKSVHLTVLRWRCQRRGGQRCGWIPIQYPIISECKCSC
B7: BMPRII receptor-human-IgG1-Fc fusion protein (Fc fusion, UniProt Q13873 27-150, looked up)
chain: SQNQERLCAFKDPYQQDLGIGESRISHENGTILCSKGSTCYGLWEKSKGDINLVKQGCWSHIGDPQECHYEECVVTTTPPSIQNGTYRFCCCSTDLCNVNFTENFPPPDTTPLSPPHSFNRDET
notes: extracellular domain; See note of m11; also called BMPR IIA; BMPRIIA; not shown: human IgG1 Fc
B8: wild type BMP2/6 heterodimer, P12643 283-396; P22004 375-513 (ligand)
chain 1: QAKHKQRKRLKSSCKRHPLYVDFSDVGWNDWIVAPPGYHAFYCHGECPFPLADHLNSTNHAIVQTLVNSVNSKIPKACCVPTELSAISMLYLDENEKVVLKNYQDMVVEGCGCR
chain 2: T1 sequence
B9: wild type BMP2 homodimer (ligand)
chain: B8 chain 1
modifications: N-linked glycan at N56 (CHO-produced)
notes: also called BMP2WT; WT BMP2
B10: designer BMPG (ligand)
chain: B8 chain 1 with V33I, P36K, H39A, S85N, M89V, L92F, E94D, E96S, K97N, V99I
notes: Produced in CHO cells; dimer as the other BMPs
B11: ActRIIB receptor-human-IgG1-Fc fusion protein (Fc fusion, UniProt Q13705 19-137, looked up)
chain: SGRGEAETRECIYYNANWELERTNQSGLERCEGEQDKRLHCYASWRNSSGTIELVKKGCWLDDFNCYDRQECVATEENPQVYFCCCEGNFCNERFTHLPEAGGPEVTYEPPPTAPTLLT
notes: extracellular domain; See note of m11; also called ATRIIB; not shown: human IgG1 Fc
B12: ALK6 receptor-human-IgG1-Fc fusion protein (Fc fusion, UniProt O00238 14-126, looked up)
chain: KKEDGESTAPTPRPKVLRCKCHHHCPEDSVNNICSTDGYCFTMIEEDDSGLPVVTSGCLGLEGSDFQCRDTPIPHQRRSIECCTERNECNKDLHPTLPPLKNRDFVDGPIHHR
notes: extracellular domain; See note of m11; also called BMPRIb; not shown: human IgG1 Fc

Columns and labels:
[1] = biological target: B4; test: BLI (Octet), receptor-Fc on anti-human IgG tips
Method: (§1) The Octet QK analysis was performed at […] in TBS with 0.1% Tween-20. Samples were agitated at 1000 rpm. […] Each BMP was prepared as a sevenfold serial dilution (typically 200-3 nM in singlicate) plus buffer blanks. Each Receptor/BMP binding pair was run at least in duplicate. Association was monitored for 10 min and dissociation was followed for […] into buffer alone. Kinetic parameters (kon and koff) and affinities (KD) were calculated using the Octet Data Analysis software 6.0 using a partial binding 1:1 model following manufacturer's instructions.

[2] = biological target: B11; test: BLI (Octet), receptor-Fc on anti-human IgG tips
Method: as §1

[3] = biological target: B5; test: BLI (Octet), receptor-Fc on anti-human IgG tips
Method: as §1

[4] = biological target: B7; test: BLI (Octet), receptor-Fc on anti-human IgG tips
Method: as §1

[5] = biological target: T4, ActRIIA receptor-human-IgG1-Fc fusion protein (human, UniProt P27037 20-135, limits assumed); test: BLI (Octet), receptor-Fc on anti-human IgG tips
T4 construct: extracellular domain; See note of m11; not shown: human IgG1 Fc
T4 sequence (P27037 20-135 limits assumed): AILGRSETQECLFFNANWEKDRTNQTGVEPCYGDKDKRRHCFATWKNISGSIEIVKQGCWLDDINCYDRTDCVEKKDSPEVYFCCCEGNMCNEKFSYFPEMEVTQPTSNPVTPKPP
Method: as §1

[6] = biological target: B12; test: BLI (Octet), receptor-Fc on anti-human IgG tips
Method: as §1

Noggin = biological target: B6; test: Noggin affinity; method and unit not stated
[7] = biological target: B11; test: ActRIIb affinity; method not given
wild type BMP6 homodimer [8] = biological target: T1, wild type BMP6 homodimer; test: BLI (Octet), receptor-Fc on anti-human IgG tips
Method: as §1

wild type BMP6 homodimer [9] = biological target: T1, wild type BMP6 homodimer; test: BLI (Octet), receptor-Fc on anti-human IgG tips; remark: listed apart in the source
Method: as §1

wild type BMP6 homodimer [10] = biological target: T1, wild type BMP6 homodimer; test: BLI (Octet), receptor-Fc on anti-human IgG tips; Table 13: weak binding, 700 nM
Method: as §1

designer BMP-GER = biological target: B1; test: cell-based or functional assay
designer BMPE = biological target: T2, designer BMPE; test: cell-based or functional assay
[11] = biological target: T5, wild type BMP2/6 heterodimer (human, UniProt P12643 283-396; P22004 375-513); test: BLI (Octet), receptor-Fc on anti-human IgG tips
Method: as §1

[12] = biological target: T5, wild type BMP2/6 heterodimer; test: BLI (Octet), receptor-Fc on anti-human IgG tips; remark: listed apart in the source
Method: as §1

[13] = biological target: T3, ALK2 receptor-human-IgG1-Fc fusion …; test: BLI (Octet), receptor-Fc on anti-human IgG tips; conditions: remark: other sources report otherwise
[14] = biological target: B7; test: BLI (Octet), receptor-Fc on anti-human IgG tips; remark: listed apart in the source
Method: as §1

[15] = biological target: B11; test: BLI (Octet), receptor-Fc on anti-human IgG tips; remark: listed apart in the source
Method: as §1

[16] = biological target: T4, ActRIIA receptor-human-IgG1-Fc fusion …; test: BLI (Octet), receptor-Fc on anti-human IgG tips; remark: listed apart in the source
Method: as §1

[17] = biological target: B12; test: BLI (Octet), receptor-Fc on anti-human IgG tips; remark: listed apart in the source
Method: as §1

[18] = biological target: B5; test: BLI (Octet), receptor-Fc on anti-human IgG tips; Table 12, sign printed '<'
Method: as §1

wild type BMP2 homodimer [19] = biological target: B9; test: BLI (Octet), receptor-Fc on anti-human IgG tips
Method: as §1

wild type BMP2 homodimer [20] = biological target: B9; test: BLI (Octet), receptor-Fc on anti-human IgG tips; remark: listed apart in the source
Method: as §1

Binder: B1
Kd [1]: 2 nM
Kd [2]: 0.5 nM
Kd [3]: 2 nM
Kd [4]: 3.5 nM
Kd [5]: 2 nM
Kd [6]: 1 nM
Noggin Affinity (Noggin): 4
Kd [7]: 2 nM

Binder: B2
Noggin Affinity (Noggin): 6
Kd [7]: 0.5 nM

Binder: B3
Noggin Affinity (Noggin): 7.5
Kd [7]: 0.07 nM

Binder: B4
Kd (wild type BMP6 homodimer [8]): 11 nM
Kd (wild type BMP6 homodimer [9]): 11 nM

Binder: B5
Kd (wild type BMP6 homodimer [10]): 700 nM

Binder: B6
IC50 (read off the curve) (designer BMP-GER): ~40 ng/mL
IC50 (read off the curve) (designer BMPE): ~90 ng/mL

Binder: B7
Kd (wild type BMP6 homodimer [8]): 4 nM
Kd [11]: 3 nM
Kd (wild type BMP6 homodimer [9]): 4 nM
Kd [12]: 3 nM

Binder: B8
Kd [13]: 250 nM

Binder: B9
Kd [4]: 62 nM
Kd [14]: 62 nM

Binder: B10
Kd [2]: 0.5 nM
Kd [4]: 4 nM
Kd [5]: 2 nM
Kd [6]: 1 nM
Kd [15]: 0.5 nM
Kd [14]: 4 nM
Kd [16]: 2 nM
Kd [17]: 1 nM
Kd [18]: > 1000 nM

Binder: B11
Kd (wild type BMP6 homodimer [8]): 0.5 nM
Kd [11]: 1 nM
Kd (wild type BMP6 homodimer [9]): 0.5 nM
Kd [12]: 1 nM

Binder: B12
Kd (wild type BMP6 homodimer [8]): 20 nM
Kd (wild type BMP2 homodimer [19]): 1 nM
Kd [11]: 0.5 nM
Kd (wild type BMP6 homodimer [9]): 20 nM
Kd (wild type BMP2 homodimer [20]): 1 nM
Kd [12]: 0.5 nM
